Laboratory results reported in US7094554.
pIC50, pKd: −log10 of the molar value.

Key:
[1] = molecular target: P. gossypiella (pink bollworm) midgut brush border membrane vesicle (BBMV) proteins (Pectinophora gossypiella); assay: homologous competition, 125I-Cry1Ac against unlabeled Cry1Ac on BBMV
[2] = molecular target: P. gossypiella (pink bollworm) midgut brush border membrane vesicle (BBMV) proteins (Pectinophora gossypiella); assay: homologous competition assay, 125I-toxin on BBMV
[3] = molecular target: P. gossypiella (pink bollworm) midgut brush border membrane vesicle (BBMV) proteins (Pectinophora gossypiella); assay: saturation binding, fixed 125I-toxin with increasing BBMV
[4] = molecular target: P. gossypiella (pink bollworm) midgut brush border membrane vesicle (BBMV) proteins (Pectinophora gossypiella); assay: competition with 125I-Cry1Ac on BBMV, 1000 nM unlabeled toxin
[5] = molecular target: P. gossypiella (pink bollworm) midgut brush border membrane vesicle (BBMV) proteins (Pectinophora gossypiella); assay: competition with 125I-Cry1Ac on BBMV
[6] = molecular target: P. gossypiella (pink bollworm) midgut brush border membrane vesicle (BBMV) proteins (Pectinophora gossypiella); assay: homologous competition, 125I-Cry1Ab against unlabeled Cry1Ab on BBMV
[7] = molecular target: P. gossypiella (pink bollworm) midgut brush border membrane vesicle (BBMV) proteins (Pectinophora gossypiella); assay: homologous competition, 125I-Cry1Aa against unlabeled Cry1Aa on BBMV

Which results are given for “Cry1Ac toxin (trypsinized 60 kD toxin) (from UniProt P05068 29-623) (ligand)”?
pIC50 [1]: 8.00; pKd [2]: 7.89; concentration of binding sites (Bmax) [2]: 8.6 pmol/mg; fold difference in binding compared to Cry1Ab [3]: 30 fold; fold higher binding compared to Cry1Aa [3]: 4 fold; maximum saturable binding at 400 µg/ml of BBMV [3]: 1.5 ng; percent reduction of 125I-Cry1Ac binding at 1000 nM [4]: 95%; pIC50 [5]: 8.00

How did the pKd [2] turn out when “Cry1Ab toxin (trypsinized 60 kD toxin) (from UniProt P0A370 29-620) (ligand)” was run?
Its pKd is 7.91.

And the concentration of binding sites (Bmax) [2]?
Its concentration of binding sites (Bmax) is 3.6 pmol/mg.

And the maximum saturable binding at 400 µg/ml of BBMV [3]?
The maximum saturable binding at 400 µg/ml of BBMV was 0.05 ng.

And the percent reduction of 125I-Cry1Ac binding at 1000 nM [4]?
Its percent reduction of 125I-Cry1Ac binding at 1000 nM is 82%.

What about the pIC50 [5] of the same substance?
The pIC50 was 7.00.

And the pIC50 [6]?
Its pIC50 is 8.00.

What does the source list for “Cry1Aa toxin (trypsinized 60 kD toxin) (from UniProt P0A366 29-619) (ligand)”?
pKd [2]: 7.78; concentration of binding sites (Bmax) [2]: 3.7 pmol/mg; maximum saturable binding at 400 µg/ml of BBMV [3]: 0.35 ng; percent reduction of 125I-Cry1Ac binding at 1000 nM [4]: 80%; pIC50 [7]: 8.00; pIC50 [5]: 7.00
